Stoichiometry N data for two substances are collected here from article PMC10140725 (Scientific Reports, 2023).

Assay [1] addresses hemagglutinin (HA) of H1N1 influenza A strain A/Jiangsu/ALS1/2011, mature HA1/HA2 trimer (Influenza A virus H1N1, strain A/Jiangsu/ALS1/2011). Nature of the assay: crystal structure.
Assay [2] deals with hemagglutinin (HA) of H1N1 influenza A strain A/Almaty/32/1998, mature HA1/HA2 trimer (Influenza A virus H1N1, strain A/Almaty/32/1998). The experiment in a line: crystal structure.

In turn, “hemagglutinin (HA) of H1N1 influenza A strain A/Jiangsu/ALS1/2011, mature HA1/HA2 trimer (natural protein)” returned a stoichiometry N in assay [1] of 3.

Turning to “hemagglutinin (HA) of H1N1 influenza A strain A/Almaty/32/1998, mature HA1/HA2 trimer (natural protein)”, the stoichiometry N in assay [2] is 3.

Broadly, the stoichiometry N is a count of units in the complex or per binding partner.
